Results taken from US20230106083A1, “SILICON-FLUORIDE HETEROAROMATIC SYSTEMS FOR APPLICATIONS IN POSITRON EMISSION TOMOGRAPHY (PET) MOLECULAR IMAGING” (The Regents of the University of California, priority 2019, published 2023).
Read-outs that look alike come from different tables or passages of the source.

Key:
[1] = Stability screen of HetSiFA [^18F]-12 in acetonitrile (RCC by radio-TLC over time); assay type: physicochemical; conditions: room temperature, 1.8 mg (9.4 μmol) Et4NHCO3 used for elution
Procedure: Isotopic exchange reactions were conducted in 1 mL Eppendorf tube containing hetroarylfluorosilanes 1 in dry acetonitrile (3 mM stock solution, 50 μL). […] An aliquot of the crude reaction mixture was spotted on a silica gel coated TLC plate, developed in a glass chamber using [^18F]fluoride Het Si tBu tBu F Het Si tBu tBu ^18F Et4NHCO3 CH3CN, 23° C. 1 [^18F]-1 S15 acetonitrile (100%) or acetonitrile:water (95:5) as the eluent and analyzed by radio-TLC using a miniGITA*TLC scanner. The radiochemical conversion (RCC) was calculated by dividing the integrated area of the ^18F-fluorinated product peak by the total integrated area of all peaks on the TLC and multiplying by 100 to convert to percentage units. Isotopic exchange and purity was confirmed by analytical HPLC by co-injecting with the 19F-reference standard (UV absorbance at 254 nm). An aliquot of the crude reaction mixture (10 μL) was added to the 19F-reference standard (1 mg/mL) in acetonitrile (10 μL) and the sample was injected into the analytical HPLC.
[^18F]TEAF was obtained by eluting fluoride ion with high base or low base, following the protocol described above.

[2] = MicroPET/CT biodistribution of [^18F]-17 in normal mice (ROI quantification); assay type: in vivo, C57BL6 mice; conditions: for tissue uptake at 1 h / tissue uptake at 2 h: C57BL/6, mouse; for tissue uptake at 2 h: 2 h post-injection
Procedure: Micropositron emission tomography-computed tomography (microPET/CT) imaging studies were performed in normal mice to investigate the in vivo stability of the silicon-fluorine bond in the Heteroaromatic silicon fluoride acceptor peptide conjugate, [^18F]-17. Reformulated [^18F]-17 (2.2 MBq) was injected via the tail vein into C57BL/6 mice (n=3), and microPET/CT scans were acquired. […] Alternatively, the GI activity may also be a result of this particular peptide, for which the full cholecystokinin construct plays important roles in stimulating digestion within the GI system.
Animal studies were approved by the UCLA Animal Research Committee and carried out according to the guidelines of the Department of Laboratory Animal Medicine at UCLA. Female C57BL6 mice were injected intravenously via tail vein with approximately 2.2 MBq (60 μCi) of [^18F]-17. Animals were kept warm on heating pads throughout the imaging procedures. At 1 and 2 h after tracer injection, mice were anesthetized with 2% isoflurane in oxygen and placed in dedicated Genisys8 imaging chambers for PET/CT imaging on the Genisys8 PET/CT (Sofie Biosciences). PET scans were acquired for 10 min with an energy window of 150-650 keV reconstructed using ML-EM, followed by CT acquisition. All PET images were corrected for CTbased photon attenuation, detector normalization and radioisotope decay (scatter correction was not applied) and converted to units of percent injected dose per gram (% ID/g). Images were analyzed by drawing regions-of-interest (ROI) in select tissues using AMIDE v1.0.5. See e.g. Loening et al., Mol. Imaging 2003, 3, 131.

Structure (SMILES): CC(C)(C)[Si](F)(c1cc2cccc(C(=O)O)c2s1)C(C)(C)C [[^18F]-12, 2-(di-tertbutylfluorosilyl) benzo[b]thiophene-7-carboxylic acid]
- RCC (stability screen) ([1]; 2 min): 95%
- RCC (stability screen) ([1]; 5 min): 96%
- RCC (stability screen) ([1]; 15 min): 97%
- RCC (stability screen) ([1]; 30 min): 97%
- RCC (stability screen) ([1]; 60 min): 97%

Structure (SMILES): CSCC[C@H](NC(=O)[C@H](Cc1c[nH]c2ccccc12)NC(=O)CN1CCN(CC(=O)O)CCN(CC(=O)O)CCN(CC(=O)O)CC1)C(=O)N[C@@H](CC(=O)NCCOCCOCCOCCNC(=O)c1cccc2cc([Si](F)(C(C)(C)C)C(C)(C)C)sc12)C(=O)N[C@@H](Cc1ccccc1)C(N)=O [[^18F]-17]
- Biodistribution, Muscle ([2]; PET quantification, 1 h post-injection, i.v. tail vein, C57BL6 mice): 0.36 % ID/g
- tissue uptake at 1 h ([2]; female, GI tract, iv, 2.2 MBq, total radioactivity, PET quantification, 1 h post-injection, i.v. tail vein, C57BL6 mice, read-out: Biodistribution, GI): 107 ± 24 %ID/g
- tissue uptake at 2 h ([2]; female, GI tract, iv, 2.2 MBq, total radioactivity, PET quantification, i.v. tail vein, C57BL6 mice, read-out: Biodistribution, GI): 122 ± 48 %ID/g
- tissue uptake at 1 h ([2]; female, bladder, iv, 2.2 MBq, total radioactivity, PET quantification, 1 h post-injection, i.v. tail vein, C57BL6 mice, read-out: Biodistribution, Bladder): 35 ± 12 %ID/g
- tissue uptake at 2 h ([2]; female, bladder, iv, 2.2 MBq, total radioactivity, PET quantification, i.v. tail vein, C57BL6 mice, read-out: Biodistribution, Bladder): 30 ± 7 %ID/g
- tissue uptake at 1 h ([2]; female, bone (knee), iv, 2.2 MBq, total radioactivity, PET quantification, 1 h post-injection, i.v. tail vein, C57BL6 mice, read-out: Biodistribution, Bone (knee)): 8 ± 0.65 %ID/g
- tissue uptake at 2 h ([2]; female, bone (knee), iv, 2.2 MBq, total radioactivity, PET quantification, i.v. tail vein, C57BL6 mice, read-out: Biodistribution, Bone (knee)): 8.2 ± 0.56 %ID/g
- tissue uptake at 1 h ([2]; female, brain, iv, 2.2 MBq, total radioactivity, PET quantification, 1 h post-injection, i.v. tail vein, C57BL6 mice, read-out: Biodistribution, Brain): 0.44 ± 0.06 %ID/g
- tissue uptake at 2 h ([2]; female, brain, iv, 2.2 MBq, total radioactivity, PET quantification, i.v. tail vein, C57BL6 mice, read-out: Biodistribution, Brain): 0.33 ± 0.03 %ID/g
- tissue uptake at 1 h ([2]; female, gallbladder, iv, 2.2 MBq, total radioactivity, PET quantification, 1 h post-injection, i.v. tail vein, C57BL6 mice, read-out: Biodistribution, Gallbladder): 33 ± 14 %ID/g
- tissue uptake at 2 h ([2]; female, gallbladder, iv, 2.2 MBq, total radioactivity, PET quantification, i.v. tail vein, C57BL6 mice, read-out: Biodistribution, Gallbladder): 28 ± 9 %ID/g
- tissue uptake at 1 h ([2]; female, heart, iv, 2.2 MBq, total radioactivity, PET quantification, 1 h post-injection, i.v. tail vein, C57BL6 mice, read-out: Biodistribution, Heart): 2 ± 0.25 %ID/g
- tissue uptake at 2 h ([2]; female, heart, iv, 2.2 MBq, total radioactivity, PET quantification, i.v. tail vein, C57BL6 mice, read-out: Biodistribution, Heart): 1.2 ± 0.26 %ID/g
- tissue uptake at 1 h ([2]; female, kidney, iv, 2.2 MBq, total radioactivity, PET quantification, 1 h post-injection, i.v. tail vein, C57BL6 mice, read-out: Biodistribution, Kidney): 2.9 ± 0.62 %ID/g
- tissue uptake at 2 h ([2]; female, kidney, iv, 2.2 MBq, total radioactivity, PET quantification, i.v. tail vein, C57BL6 mice, read-out: Biodistribution, Kidney): 2.2 ± 0.38 %ID/g
- tissue uptake at 1 h ([2]; female, liver, iv, 2.2 MBq, total radioactivity, PET quantification, 1 h post-injection, i.v. tail vein, C57BL6 mice, read-out: Biodistribution, Liver): 5 ± 0.07 %ID/g
- tissue uptake at 2 h ([2]; female, liver, iv, 2.2 MBq, total radioactivity, PET quantification, i.v. tail vein, C57BL6 mice, read-out: Biodistribution, Liver): 2.4 ± 0.47 %ID/g
- tissue uptake at 1 h ([2]; female, muscle, iv, 2.2 MBq, total radioactivity, PET quantification, 1 h post-injection, i.v. tail vein, C57BL6 mice, read-out: Biodistribution, Muscle): 0.36 ± 0.06 %ID/g
- tissue uptake at 2 h ([2]; female, muscle, iv, 2.2 MBq, total radioactivity, PET quantification, i.v. tail vein, C57BL6 mice, read-out: Biodistribution, Muscle): 0.27 ± 0.11 %ID/g
- tissue uptake ([2]; female, mouse, bone, iv, 2.2 MBq, total radioactivity, FIG. 6, time not given, C57BL/6 mice): 8 %ID/g
- clearance route ([2]; microPET/CT images, C57BL/6 mice, 2.2 MBq via tail vein): initial clearance of [^18F]-17 via the kidneys, followed by the reabsorption of radiometabolites and the subsequent hepatobiliary clearance
- plasma clearance ([2]; microPET/CT, C57BL/6 mice, 2.2 MBq via tail vein): rapid plasma clearance
